US20190085054A1 (Amgen, published 2019)

T1: human MMP2 (pro-MMP2 activated with APMA) (human, UniProt P08253 30-660)
T1 sequence (looked up): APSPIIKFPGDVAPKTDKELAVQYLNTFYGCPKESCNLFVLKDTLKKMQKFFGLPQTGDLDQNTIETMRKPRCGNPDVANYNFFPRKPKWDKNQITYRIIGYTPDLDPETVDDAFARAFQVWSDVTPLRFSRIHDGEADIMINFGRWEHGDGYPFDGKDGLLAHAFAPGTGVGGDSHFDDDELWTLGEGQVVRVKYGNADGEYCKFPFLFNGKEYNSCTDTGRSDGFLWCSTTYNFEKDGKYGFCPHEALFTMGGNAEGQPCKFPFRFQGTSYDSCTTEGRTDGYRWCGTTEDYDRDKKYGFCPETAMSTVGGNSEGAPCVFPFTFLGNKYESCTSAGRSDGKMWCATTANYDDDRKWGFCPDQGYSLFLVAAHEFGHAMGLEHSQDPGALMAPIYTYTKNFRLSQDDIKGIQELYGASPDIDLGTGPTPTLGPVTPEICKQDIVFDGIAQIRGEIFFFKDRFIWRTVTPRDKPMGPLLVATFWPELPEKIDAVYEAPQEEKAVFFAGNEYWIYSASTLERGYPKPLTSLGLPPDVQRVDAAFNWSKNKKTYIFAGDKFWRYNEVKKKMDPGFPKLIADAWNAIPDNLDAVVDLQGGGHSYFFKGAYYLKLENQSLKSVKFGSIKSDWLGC

B1: wild-type TIMP-3 (native human tissue inhibitor of metalloproteinase 3) (other)
chain: CTCSPSHPQDAFCNSDIVIRAKVVGKKLVKEGPFGTLVYTIKQMKMYRGFTKMPHVQYIHTEASESLCGLKLEVNKYQYLLTGRVYDGKMYTGLCNFVERWDQLTLSQRKGLNYRYHLGCNCKIKSCYYLPCFVTSKNECLWTDMLSNFGYPGYQSKHYACIRQKGGYCSWYRGWAPPDKSIINATDP
B2: TIMP-3 mutein K45N, V47T, F57N, K94N, E96T, D110N, K112T, G173T, R186Q, K188Q (other)
chain: CTCSPSHPQDAFCNSDIVIRANVTGKKLVKEGPNGTLVYTIKQMKMYRGFTKMPHVQYIHTEASESLCGLNLTVNKYQYLLTGRVYNGTMYTGLCNFVERWDQLTLSQRKGLNYRYHLGCNCKIKSCYYLPCFVTSKNECLWTDMLSNFTYPGYQSKHYACIQQQGGYCSWYRGWAPPDKSIINATDP
B3: TIMP-3 mutein K45S, F57N, K94N, E96T, D110N, K112T, R138T, G173T (other)
chain: CTCSPSHPQDAFCNSDIVIRASVVGKKLVKEGPNGTLVYTIKQMKMYRGFTKMPHVQYIHTEASESLCGLNLTVNKYQYLLTGRVYNGTMYTGLCNFVERWDQLTLSQRKGLNYTYHLGCNCKIKSCYYLPCFVTSKNECLWTDMLSNFTYPGYQSKHYACIRQKGGYCSWYRGWAPPDKSIINATDP
B4: TIMP-3 mutein K45N, V47T, F57N, K75N, P77T, K94N, E96T, R138T, G173T (other)
chain: CTCSPSHPQDAFCNSDIVIRANVTGKKLVKEGPNGTLVYTIKQMKMYRGFTNMTHVQYIHTEASESLCGLNLTVNKYQYLLTGRVYDGKMYTGLCNFVERWDQLTLSQRKGLNYTYHLGCNCKIKSCYYLPCFVTSKNECLWTDMLSNFTYPGYQSKHYACIRQKGGYCSWYRGWAPPDKSIINATDP
B5: TIMP-3 mutein K45S, F57N, T63N, K65T, K94N, E96T, G173T (other)
chain: CTCSPSHPQDAFCNSDIVIRASVVGKKLVKEGPNGTLVYNITQMKMYRGFTKMPHVQYIHTEASESLCGLNLTVNKYQYLLTGRVYDGKMYTGLCNFVERWDQLTLSQRKGLNYRYHLGCNCKIKSCYYLPCFVTSKNECLWTDMLSNFTYPGYQSKHYACIRQKGGYCSWYRGWAPPDKSIINATDP
B6: TIMP-3 mutein K45E, F57N, Q126N, R138T, G173T (other)
chain: CTCSPSHPQDAFCNSDIVIRAEVVGKKLVKEGPNGTLVYTIKQMKMYRGFTKMPHVQYIHTEASESLCGLKLEVNKYQYLLTGRVYDGKMYTGLCNFVERWDNLTLSQRKGLNYTYHLGCNCKIKSCYYLPCFVTSKNECLWTDMLSNFTYPGYQSKHYACIRQKGGYCSWYRGWAPPDKSIINATDP
B7: TIMP-3 mutein K45E, F57N, K94N, E96T, D110N, K112T, R138T (other)
chain: CTCSPSHPQDAFCNSDIVIRAEVVGKKLVKEGPNGTLVYTIKQMKMYRGFTKMPHVQYIHTEASESLCGLNLTVNKYQYLLTGRVYNGTMYTGLCNFVERWDQLTLSQRKGLNYTYHLGCNCKIKSCYYLPCFVTSKNECLWTDMLSNFGYPGYQSKHYACIRQKGGYCSWYRGWAPPDKSIINATDP
B8: TIMP-3 mutein K45E, K49E, F57N, K94N, E96T, D110N, K112T, G173T, R186N, K188T (other)
chain: CTCSPSHPQDAFCNSDIVIRAEVVGEKLVKEGPNGTLVYTIKQMKMYRGFTKMPHVQYIHTEASESLCGLNLTVNKYQYLLTGRVYNGTMYTGLCNFVERWDQLTLSQRKGLNYRYHLGCNCKIKSCYYLPCFVTSKNECLWTDMLSNFTYPGYQSKHYACINQTGGYCSWYRGWAPPDKSIINATDP
B9: TIMP-3 mutein K50N, V52T, F57N, K94N, E96T, D110N, K112T, R138T (other)
chain: CTCSPSHPQDAFCNSDIVIRAKVVGKNLTKEGPNGTLVYTIKQMKMYRGFTKMPHVQYIHTEASESLCGLNLTVNKYQYLLTGRVYNGTMYTGLCNFVERWDQLTLSQRKGLNYTYHLGCNCKIKSCYYLPCFVTSKNECLWTDMLSNFGYPGYQSKHYACIRQKGGYCSWYRGWAPPDKSIINATDP
B10: TIMP-3 mutein K45N, V47T, F57N, K94N, E96T, D110N, K112T, R186N, K188T (other)
chain: CTCSPSHPQDAFCNSDIVIRANVTGKKLVKEGPNGTLVYTIKQMKMYRGFTKMPHVQYIHTEASESLCGLNLTVNKYQYLLTGRVYNGTMYTGLCNFVERWDQLTLSQRKGLNYRYHLGCNCKIKSCYYLPCFVTSKNECLWTDMLSNFGYPGYQSKHYACINQTGGYCSWYRGWAPPDKSIINATDP
B11: TIMP-3 mutein K50N, V52T, F57N, K94N, E96T, R138T, G173T (other)
chain: CTCSPSHPQDAFCNSDIVIRAKVVGKNLTKEGPNGTLVYTIKQMKMYRGFTKMPHVQYIHTEASESLCGLNLTVNKYQYLLTGRVYDGKMYTGLCNFVERWDQLTLSQRKGLNYTYHLGCNCKIKSCYYLPCFVTSKNECLWTDMLSNFTYPGYQSKHYACIRQKGGYCSWYRGWAPPDKSIINATDP
B12: TIMP-3 mutein K45S, F57N, H78N, Q80T, K94N, E96T, R138T, G173T (other)
chain: CTCSPSHPQDAFCNSDIVIRASVVGKKLVKEGPNGTLVYTIKQMKMYRGFTKMPNVTYIHTEASESLCGLNLTVNKYQYLLTGRVYDGKMYTGLCNFVERWDQLTLSQRKGLNYTYHLGCNCKIKSCYYLPCFVTSKNECLWTDMLSNFTYPGYQSKHYACIRQKGGYCSWYRGWAPPDKSIINATDP
B13: TIMP-3 mutein K50N, V52T, K94N, E96T, R138T, G173T (other)
chain: CTCSPSHPQDAFCNSDIVIRAKVVGKNLTKEGPFGTLVYTIKQMKMYRGFTKMPHVQYIHTEASESLCGLNLTVNKYQYLLTGRVYDGKMYTGLCNFVERWDQLTLSQRKGLNYTYHLGCNCKIKSCYYLPCFVTSKNECLWTDMLSNFTYPGYQSKHYACIRQKGGYCSWYRGWAPPDKSIINATDP
B14: TIMP-3 mutein K45N, V47T, F57N, K94N, E96T, R138T, G173T (other)
chain: CTCSPSHPQDAFCNSDIVIRANVTGKKLVKEGPNGTLVYTIKQMKMYRGFTKMPHVQYIHTEASESLCGLNLTVNKYQYLLTGRVYDGKMYTGLCNFVERWDQLTLSQRKGLNYTYHLGCNCKIKSCYYLPCFVTSKNECLWTDMLSNFTYPGYQSKHYACIRQKGGYCSWYRGWAPPDKSIINATDP
B15: TIMP-3 mutein K45N, V47T, F57N, V97N, K99T, R138T, G173T (other)
chain: CTCSPSHPQDAFCNSDIVIRANVTGKKLVKEGPNGTLVYTIKQMKMYRGFTKMPHVQYIHTEASESLCGLKLENNTYQYLLTGRVYDGKMYTGLCNFVERWDQLTLSQRKGLNYTYHLGCNCKIKSCYYLPCFVTSKNECLWTDMLSNFTYPGYQSKHYACIRQKGGYCSWYRGWAPPDKSIINATDP
B16: TIMP-3 mutein K45E, K50N, V52T, K94N, E96T, D110N, K112T, R138T, G173T (other)
chain: CTCSPSHPQDAFCNSDIVIRAEVVGKNLTKEGPFGTLVYTIKQMKMYRGFTKMPHVQYIHTEASESLCGLNLTVNKYQYLLTGRVYNGTMYTGLCNFVERWDQLTLSQRKGLNYTYHLGCNCKIKSCYYLPCFVTSKNECLWTDMLSNFTYPGYQSKHYACIRQKGGYCSWYRGWAPPDKSIINATDP
B17: TIMP-3 mutein K45S, F57N, T63N, K65T, K94N, E96T, R138T, G173T (other)
chain: CTCSPSHPQDAFCNSDIVIRASVVGKKLVKEGPNGTLVYNITQMKMYRGFTKMPHVQYIHTEASESLCGLNLTVNKYQYLLTGRVYDGKMYTGLCNFVERWDQLTLSQRKGLNYTYHLGCNCKIKSCYYLPCFVTSKNECLWTDMLSNFTYPGYQSKHYACIRQKGGYCSWYRGWAPPDKSIINATDP

Tests used:
Assay in all cases: cell-based or functional assay
[1] = target: T2, catalytic domain of human MMP9 (human, UniProt P14780 107-444, limits assumed)
T2 sequence (P14780 107-444 limits assumed): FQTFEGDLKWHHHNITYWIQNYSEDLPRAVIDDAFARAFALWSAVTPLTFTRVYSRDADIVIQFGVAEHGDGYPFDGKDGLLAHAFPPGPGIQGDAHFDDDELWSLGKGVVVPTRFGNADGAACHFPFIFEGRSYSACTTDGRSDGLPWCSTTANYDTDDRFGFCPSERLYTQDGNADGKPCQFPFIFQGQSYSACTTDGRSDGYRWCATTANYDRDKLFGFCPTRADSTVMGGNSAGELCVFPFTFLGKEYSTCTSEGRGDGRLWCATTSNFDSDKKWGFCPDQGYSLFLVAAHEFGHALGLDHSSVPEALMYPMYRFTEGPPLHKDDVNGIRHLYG

active MMP13 = active MMP13 (UniProt P45452 20-471, limits assumed)
[2] = target: T1, human MMP2 (pro-MMP2 activated with …)
[3] = target: T2, catalytic domain of human MMP9; remark: listed apart in the source
[4] = target: T1, human MMP2 (pro-MMP2 activated with …); remark: listed apart in the source

Binder | MMP9 IC50 [1] [nM] | MMP13 IC50 (active MMP13) [pM] | MMP2 IC50 [2] [pM] | MMP9 Inhibition Shift [3] [fold] | MMP2 Inhibition Shift [4] [fold]
B1 | 1 | 900 | 600 | – | –
B2 | – | – | – | 12 | 3
B3 | – | – | – | 24 | 6
B4 | – | – | – | 25 | 7
B5 | – | – | – | 16 | 2
B6 | – | – | – | 8 | 4
B7 | – | – | – | 128 | 1
B8 | – | – | – | 5 | 1
B9 | – | – | – | 70 | 1
B10 | – | – | – | 8 | 3
B11 | – | – | – | 91 | 2
B12 | – | – | – | 18 | 5
B13 | – | – | – | 1 | 2
B14 | – | – | – | 15 | 5
B15 | – | – | – | 8 | 6
B16 | – | – | – | 1 | 2
B17 | – | – | – | 16 | 8
